Source: the supplement of paper PMC7877785
± gives the uncertainty stated by the source.

Assay: self-splicing fitness, log relative to wild type (ln ratio); higher = more splicing; Tetrahymena group I intron in knt gene, E. coli kanamycin selection, DiMSum; sequences stand for … in CUCUCU…GGAGGGAAAAGUUAUCAGGCAUGCACCUGGUAGCUAGUCUUUAAACCAAUAGAUUGCAUCGGUUUAAAAGGCAAGACCGUCAAAUUGCGGGAAAGGGGUCAACAGCCGUUCAGUACCAAGUCUCAGGGGAAACUUUGAGAUGGCCUUGCAAAGGGUAUGGUAAUAAGCUGACGGACAUGGUCCUAACCACGCAGCCAAGUCCUAAGUCAACAGAUCUUCUGUUGAUAUGGAUGCAGUUCACAGACUAAAUGUCGGUCGGGGAAGAUGUAUUCUUCUCAUAAGAUAUAGUCGGACCUCUCCUUAAUGGGAGCUAGCGGAUGAAGUGAUGCAACACUGGAGCCGCUGGGAACUAAUUUGUAUGCGAAAGUAUAUUGAUUAGUUUUGGAGUACUCGUGGUCG
How it was run: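 Pooled colonies went to amplicon sequencing on an Illumina HiSeq 2500 after six replicate transformations. The plates were LB agar with 100 μg/mL carbenicillin, 50 μM IPTG and 0.2% rhamnose, with or without 25 μg/mL kanamycin, incubated overnight at 37°C or 30°C. The E. coli BL21(DE3) library had all eight P1ex-region intron nucleotides randomised, the intron placed in the knt kanamycin-resistance gene on pET-22b(+). DiMSum fitness is the error-weighted combination of replicate fold changes, kanamycin against none, normalised to wild type.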

| Sequence | self-splicing fitness (ln) (30 °C) | self-splicing fitness (ln) (37 °C) |
| --- | --- | --- |
| GGUGAGCAAUAUUACGAUUU | -1.35 ± 0.23 | -0.612 ± 0.25 |
| CGAGAGCAAUAUUACGUUCU | -3.16 ± 0.13 | -2.83 ± 0.17 |
| GAAUAGCAAUAUUACGAUGG | -2.74 ± 0.14 | -0.977 ± 0.12 |
| GGUAAGCAAUAUUACGUGCU | -2.24 ± 0.18 | -1.36 ± 0.2 |
| AAGCAGCAAUAUUACGUACC | -1.17 ± 0.19 | -0.569 ± 0.22 |
| GUAGAGCAAUAUUACGAAGA | -3.65 ± 0.29 | -2.22 ± 0.43 |
| CGAUAGCAAUAUUACGGGGA |  | -2.27 ± 0.28 |
| AGGUAGCAAUAUUACGUAGU | -3.123 ± 0.017 | -1.62 ± 0.033 |
| CGUUAGCAAUAUUACGCGAG | -2.42 ± 0.29 |  |
| AAUUAGCAAUAUUACGAGCU | -1.02 ± 0.12 | -0.169 ± 0.15 |
| AUUUAGCAAUAUUACGUCUA | -0.829 ± 0.15 | 0.0394 ± 0.15 |
| GAAGAGCAAUAUUACGGGGA | -2.93 ± 0.43 | -0.71 ± 0.31 |
| GUAGAGCAAUAUUACGCAGU | -1.39 ± 0.11 | -1.45 ± 0.17 |
| AGGCAGCAAUAUUACGAGGC | -3.43 ± 0.29 | -1.67 ± 0.22 |
| CUUGAGCAAUAUUACGUUUG | -3.1 ± 0.16 | -2.26 ± 0.18 |
| UGGGAGCAAUAUUACGUGCG | -1.56 ± 0.11 | -0.551 ± 0.14 |
| UGACAGCAAUAUUACGACGA | -0.0144 ± 0.099 | 0.355 ± 0.13 |
| UCAAAGCAAUAUUACGAUAC | -3.34 ± 0.28 | -2.82 ± 0.28 |
| CGUAAGCAAUAUUACGAUAA | -2.66 ± 0.23 | -1.86 ± 0.24 |
| GAUCAGCAAUAUUACGUUUG | -1.53 ± 0.058 | 0.151 ± 0.08 |
| CCCGAGCAAUAUUACGACAG |  | -2.46 ± 0.41 |
| AUUUAGCAAUAUUACGGUCU | -0.911 ± 0.1 | -0.391 ± 0.15 |
| UGACAGCAAUAUUACGACAC | -0.678 ± 0.12 | -2.04 ± 0.17 |
| AAGCAGCAAUAUUACGGAAC | -3.6 ± 0.3 |  |
| CUCCAGCAAUAUUACGGCGA | -2.16 ± 0.22 | -1.6 ± 0.2 |
| AUCGAGCAAUAUUACGGUCG | -2.73 ± 0.38 |  |

| Sequence | self-splicing fitness (ln) (30 °C) | self-splicing fitness (ln) (37 °C) |
| --- | --- | --- |
| CGACAGCAAUAUUACGGAGG | -1.91 ± 0.086 | -1.21 ± 0.12 |
| AUGAAGCAAUAUUACGCCAU | -1.17 ± 0.082 | -0.85 ± 0.12 |
| AUUAAGCAAUAUUACGUAGC | -4.67 ± 0.45 | -1.84 ± 0.22 |
| GAUGAGCAAUAUUACGCAUU |  | -1.96 ± 0.39 |
| GUGAAGCAAUAUUACGCGUG | -0.812 ± 0.057 | -0.134 ± 0.061 |
| UGCAAGCAAUAUUACGCCCU | -0.189 ± 0.15 | 0.448 ± 0.14 |
| GAAAAGCAAUAUUACGUCGC | -1.38 ± 0.08 | -0.835 ± 0.086 |
| ACCCAGCAAUAUUACGGCUC | -1.46 ± 0.058 | -0.423 ± 0.073 |
| GAUGAGCAAUAUUACGCGCC | -3.17 ± 0.3 | -2.26 ± 0.2 |
| CCUCAGCAAUAUUACGUCGC |  | -3.77 ± 0.36 |
| GGGUAGCAAUAUUACGCGUA | -0.49 ± 0.1 | -0.35 ± 0.11 |
| GUUUAGCAAUAUUACGUUUA | -2.69 ± 0.23 | -0.853 ± 0.17 |
| GGAAAGCAAUAUUACGCCAU | -1.76 ± 0.18 | -0.946 ± 0.31 |
| UGCGAGCAAUAUUACGGGCA | -2.84 ± 0.21 | -1.31 ± 0.18 |
| GACGAGCAAUAUUACGUGUC |  | -2.74 ± 0.28 |
| ACGCAGCAAUAUUACGAAAU | -2.55 ± 0.13 | -1.7 ± 0.15 |
| CACUAGCAAUAUUACGCGCU | -3.62 ± 0.16 | -2.09 ± 0.14 |
| AAGAAGCAAUAUUACGGCGA | -0.584 ± 0.071 | -0.285 ± 0.088 |
| GAGGAGCAAUAUUACGACUC | -3.04 ± 0.27 | -2.25 ± 0.31 |
| UCGCAGCAAUAUUACGCAUA | -1.94 ± 0.13 | -0.0771 ± 0.11 |
| CGAUAGCAAUAUUACGUGAC | -2.87 ± 0.18 | -2.36 ± 0.23 |
| ACGUAGCAAUAUUACGUGUU | -3.73 ± 0.13 | -2.37 ± 0.13 |
| UGAUAGCAAUAUUACGGAUU | -2.78 ± 0.23 | -0.278 ± 0.19 |
| CUGGAGCAAUAUUACGAGAU | -4.02 ± 0.39 | -2.49 ± 0.44 |
| CGAAAGCAAUAUUACGACCU | -0.917 ± 0.079 | -0.386 ± 0.11 |
| AUUAAGCAAUAUUACGGCAG | -1 ± 0.11 | 0.0222 ± 0.13 |

| Sequence | self-splicing fitness (ln) (30 °C) | self-splicing fitness (ln) (37 °C) |
| --- | --- | --- |
| GUGGAGCAAUAUUACGUACG |  | -2.05 ± 0.23 |
| GGUGAGCAAUAUUACGUUCU | 0.501 ± 0.28 | -1.16 ± 0.27 |
| UUACAGCAAUAUUACGCUUC | -3.13 ± 0.37 | -2.99 ± 0.47 |
| GCAUAGCAAUAUUACGAGGG | -3.43 ± 0.23 | -1.69 ± 0.17 |
| AUCAAGCAAUAUUACGUUGC | -3.84 ± 0.18 | -2 ± 0.15 |
| AUGAAGCAAUAUUACGUUCC | -0.618 ± 0.086 | -0.0585 ± 0.11 |
| GCGAAGCAAUAUUACGACAC | -0.709 ± 0.21 | 0.892 ± 0.34 |
| CGAGAGCAAUAUUACGGACA | -1.85 ± 0.28 | -3.4 ± 0.39 |
| GUGAAGCAAUAUUACGGUAC | -0.508 ± 0.12 | -0.311 ± 0.15 |
| UAUAAGCAAUAUUACGGAUC | -2.57 ± 0.15 | -1.58 ± 0.18 |
| ACUUAGCAAUAUUACGGGGA | -1.38 ± 0.12 | -1.18 ± 0.15 |
| AGGAAGCAAUAUUACGUGAA | -2.53 ± 0.35 | -1.97 ± 0.24 |
| GCAGAGCAAUAUUACGGCAU | -3.03 ± 0.17 | -0.473 ± 0.11 |
| ACGUAGCAAUAUUACGAAUG | -2.89 ± 0.13 | -1.53 ± 0.12 |
| UCUGAGCAAUAUUACGUAGG | -0.323 ± 0.087 | -0.306 ± 0.13 |
| GGUUAGCAAUAUUACGCCCG | -3.15 ± 0.49 | -1.55 ± 0.48 |
| UAAAAGCAAUAUUACGGGCA | -0.521 ± 0.094 | 0.0848 ± 0.1 |
| GAAUAGCAAUAUUACGCGAA | -3.09 ± 0.21 | -1.96 ± 0.2 |
| CACGAGCAAUAUUACGGCGA | -3.28 ± 0.19 | -2.69 ± 0.26 |
| UAUUAGCAAUAUUACGUAUG | -1.65 ± 0.15 | -0.344 ± 0.17 |
| GUGGAGCAAUAUUACGGCGA | -0.352 ± 0.17 | -1.43 ± 0.23 |
| AAACAGCAAUAUUACGAAAU | -2.72 ± 0.13 | -1.48 ± 0.13 |
| UUACAGCAAUAUUACGUCGG | -1.24 ± 0.08 | -0.125 ± 0.087 |
| AGUCAGCAAUAUUACGGGCG | -0.963 ± 0.093 | 0.189 ± 0.13 |
| UAUUAGCAAUAUUACGUAUA | -1.6 ± 0.18 | -2.03 ± 0.21 |
| CAAUAGCAAUAUUACGUAUU | -3.25 ± 0.21 | -2.65 ± 0.18 |
